Results as given in US20250034273A1 (ARBELE, published 2025).

How the values were obtained:
human Trop2 [1] = target: T1, human Trop2 (human, UniProt P09758 27-274, limits assumed); experiment: absorbance assay (Net absorbance, Abs 450) on 'Trop2-hFc'; one unprinted antibody concentration
T1 sequence (looked up): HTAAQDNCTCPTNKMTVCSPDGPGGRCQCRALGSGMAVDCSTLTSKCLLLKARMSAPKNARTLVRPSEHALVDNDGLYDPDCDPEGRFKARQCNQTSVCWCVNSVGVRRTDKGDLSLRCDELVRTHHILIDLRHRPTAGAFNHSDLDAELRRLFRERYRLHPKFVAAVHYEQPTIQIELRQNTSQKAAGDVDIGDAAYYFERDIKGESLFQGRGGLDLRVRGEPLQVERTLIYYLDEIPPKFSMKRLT

human CD3 [2] = target: human CD3 (human); experiment: Octet sensorgrams (nm against time), panel 'Human CD3', association to about 900 s, dissociation to 1800 s
human CD3 (human), sequence (chain, as listed by the source): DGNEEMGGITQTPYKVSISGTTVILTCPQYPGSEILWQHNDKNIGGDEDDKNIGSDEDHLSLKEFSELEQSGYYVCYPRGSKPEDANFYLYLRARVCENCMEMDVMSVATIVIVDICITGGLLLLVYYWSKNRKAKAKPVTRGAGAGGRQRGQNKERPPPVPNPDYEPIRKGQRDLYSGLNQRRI

monkey CD3 = target: T2, monkey CD3 (monkey); experiment: Octet sensorgrams (nm against time), panel 'Cynomolgus CD3', association to about 900 s, dissociation to 1800 s
T2 chain: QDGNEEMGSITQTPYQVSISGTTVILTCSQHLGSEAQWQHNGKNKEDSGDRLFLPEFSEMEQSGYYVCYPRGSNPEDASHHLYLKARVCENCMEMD

human CD3 [3] = target: human CD3 (human); experiment: receptor occupancy (Percentage) on PBMC against ARB203 (nM); the legend speaks of occupancy on T cells, the CD3 arm of ARB203
[4] = target: T3, Trop2 on cells (Trop2-positive SW480 cells; Trop2-expressing HEK293 cells) (UniProt P09758 27-323, limits assumed); experiment: receptor occupancy (%) on Trop2-positive SW480 cells against ARB203 (nM)
T3 construct: whole, on cells
T3 sequence (looked up): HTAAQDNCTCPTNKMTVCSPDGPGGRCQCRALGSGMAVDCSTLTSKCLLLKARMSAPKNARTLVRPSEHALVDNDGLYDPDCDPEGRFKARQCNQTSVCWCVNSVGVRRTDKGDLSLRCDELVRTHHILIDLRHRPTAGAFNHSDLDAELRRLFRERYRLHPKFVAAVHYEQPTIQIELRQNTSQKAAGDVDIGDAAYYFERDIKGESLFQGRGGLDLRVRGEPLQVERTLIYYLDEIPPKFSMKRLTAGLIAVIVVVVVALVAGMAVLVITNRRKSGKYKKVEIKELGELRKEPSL

human Trop2 [5] = target: T1, human Trop2; experiment: Octet (BLI)
[6] = target: T3, Trop2 on cells (Trop2-positive SW480 …); experiment: receptor occupancy (Percentage) on DLD1/DLD1-2C7 cancer cells against ARB203 (nM); Trop2 arm of ARB203
[7] = target: T4, PD1 expressed on HEK293F cells (UniProt Q15116 25-288, limits assumed); experiment: flow cytometry binding, receptor occupancy (0 to 1) on HEK293F cells expressing PD1 against Antibody (nM)
T4 construct: whole, on cells; also called HEK293F expressing PD1; HKE293F expressing PD1
T4 sequence (Q15116 25-288 limits assumed): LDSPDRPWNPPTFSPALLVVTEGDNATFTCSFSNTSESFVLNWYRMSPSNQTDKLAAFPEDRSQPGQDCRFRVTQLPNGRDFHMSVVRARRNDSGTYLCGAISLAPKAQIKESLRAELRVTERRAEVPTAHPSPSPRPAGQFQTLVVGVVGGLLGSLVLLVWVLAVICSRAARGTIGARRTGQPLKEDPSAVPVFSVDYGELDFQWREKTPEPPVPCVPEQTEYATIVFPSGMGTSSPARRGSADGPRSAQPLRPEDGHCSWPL

B1: ARB203-h3G8 v1 (bispecific antibody)
heavy: EVQLVESGGGLVQPGGSLRLSCAASGFTFSTYTMSWVRQTPAKGLVWVSTINSDGYNIYYSDSMKGRFTISRDNAKYTLYLQMNSLRAEDTAMYYCARCSYYSYDYFDYWGQGTLVTVSSASTKGPSVFPLAPSSKSTSGGTAALGCLVKDYFPEPVTVSWNSGALTSGVHTFPAVLQSSGLYSLSSVVTVPSSSLGTQTYICNVNHKPSNTKVDKRVEPKSCDKTHTCPPCPAPELLGGPSVFLFPPKPKDTLMISRTPEVTCVVVDVSQEDPEVQFNWYVDGVEVHNAKTKPREEQFNSTYRVVSVLTVLHQDWLNGKEYKCKVSNKGLPSSIEKTISKAKGQPREPQVYTLPPSQEEMTKNQVSLTCLVKGFYPSDIAVEWESNGQPENNYKTTPPVLDSDGSFFLYSRLTVDKSRWQEGNVFSCSVMHEALHNHYTQKSLSLSLGKPAGGGGSQVQLVQSGAEVKKPGASVKVSCKASGYTFTSYYMHWVRQAPGQGLEWMGWIYPENVNTNYAQKFQGRVTMTRDTSISTAYMELSRLRSDDTAVYYCARDSYGSYFFDYWGQGTLVTVSSGGGGSGGGGSGGGGSDIVMTQSPDSLAVSLGERATINCKSSQSLLNSRTRKNYLAWYQQKPGQPPKLLIYWASTRESGVPDRFSGSGSGTDFTLTISSLQAEDVAVYYCTQSFILRTFGQGTKVEIK
light: DIQMTQSPSSLSASVGDRVTITCRASENIDNYLAWYQQKQGKVPKLLIYAATNLADGMPSRFSGSGSGTDFTLTISSLQPEDVATYYCQHYYSNQLTFGQGTKLEIKRTVAAPSVFIFPPSDEQLKSGTASVVCLLNNFYPREAKVQWKVDNALQSGNSQESVTEQDSKDSTYSLSSTLTLSKADYEKHKVYACEVTHQGLSSPVTKSFNRGEC
notes: also called h8B5-h3G8 V1; h8B5-h3G8v1
B1: binds (human Trop2 [1]).

B2: h8B5-h3G8v2, bispecific anti-Trop2 (h8B5) / anti-CD3 (h3G8 scFv V2, VL-VH with 3xGS linker) (bispecific antibody, human IgG1, kappa)
heavy: EVQLVESGGGLVQPGGSLRLSCAASGFTFSTYTMSWVRQTPAKGLVWVSTINSDGYNIYYSDSMKGRFTISRDNAKYTLYLQMNSLRAEDTAMYYCARCSYYSYDYFDYWGQGTLVTVSSASTKGPSVFPLAPSSKSTSGGTAALGCLVKDYFPEPVTVSWNSGALTSGVHTFPAVLQSSGLYSLSSVVTVPSSSLGTQTYICNVNHKPSNTKVDKRVEPKSCDKTHTCPPCPAPELLGGPSVFLFPPKPKDTLMISRTPEVTCVVVDVSQEDPEVQFNWYVDGVEVHNAKTKPREEQFNSTYRVVSVLTVLHQDWLNGKEYKCKVSNKGLPSSIEKTISKAKGQPREPQVYTLPPSQEEMTKNQVSLTCLVKGFYPSDIAVEWESNGQPENNYKTTPPVLDSDGSFFLYSRLTVDKSRWQEGNVFSCSVMHEALHNHYTQKSLSLSLGKPAGGGGSDIVMTQSPDSLAVSLGERATINCKSSQSLLNSRTRKNYLAWYQQKPGQPPKLLIYWASTRESGVPDRFSGSGSGTDFTLTISSLQAEDVAVYYCTQSFILRTFGQGTKVEIKGGGGSGGGGSGGGGSQVQLVQSGAEVKKPGASVKVSCKASGYTFTSYYMHWVRQAPGQGLEWMGWIYPENVNTNYAQKFQGRVTMTRDTSISTAYMELSRLRSDDTAVYYCARDSYGSYFFDYWGQGTLVTVSS
light: B1 light
notes: IgG4 Fc with IgG1 hinge, scFv at the heavy chain C-terminus
For B2, the Kd (human CD3 [2]) was 3.7 nM and the Kd (monkey CD3) was 0.802 nM.

B3: ARB203, bispecific antibody of anti-Trop2 (h8B5) and anti-CD3 (UCHT1) (bispecific antibody, human IgG1, kappa)
heavy: EVQLVESGGGLVQPGGSLRLSCAASGFTFSTYTMSWVRQTPAKGLVWVSTINSDGYNIYYSDSMKGRFTISRDNAKYTLYLQMNSLRAEDTAMYYCARCSYYSYDYFDYWGQGTLVTVSSASTKGPSVFPLAPSSKSTSGGTAALGCLVKDYFPEPVTVSWNSGALTSGVHTFPAVLQSSGLYSLSSVVTVPSSSLGTQTYICNVNHKPSNTKVDKRVEPKSCDKTHTCPPCPAPELLGGPSVFLFPPKPKDTLMISRTPEVTCVVVDVSQEDPEVQFNWYVDGVEVHNAKTKPREEQFNSTYRVVSVLTVLHQDWLNGKEYKCKVSNKGLPSSIEKTISKAKGQPREPQVYTLPPSQEEMTKNQVSLTCLVKGFYPSDIAVEWESNGQPENNYKTTPPVLDSDGSFFLYSRLTVDKSRWQEGNVFSCSVMHEALHNHYTQKSLSLSLGKPAGGGGSEVQLVESGGGLVQPGGSLRLSCAASGYSFTGYTMNWVRQAPGKGLEWVALINPYKGVSTYNQKFKDRFTISVDKSKNTAYLQMNSLRAEDTAVYYCARSGYYGDSDWYFDVWGQGTLVTVSSGGGGSGGGGSGGGGSDIQMTQSPSSLSASVGDRVTITCRASQDIRNYLNWYQQKPGKAPKLLIYYTSRLESGVPSRFSGSGSGTDYTLTISSLQPEDFATYYCQQGNTLPWTFGQGTKVEIK
light: B1 light
notes: IgG4 Fc with IgG1 hinge; Bivalent Fab to Trop2 and bivalent scFv to CD3 at the heavy chain C-terminus
B3 was tested, and the EC50 (human CD3 [3]) was 20.9 nM, the EC50 [4] was 0.155 nM and the Kd (human Trop2 [5]) was ≤ 1 pM. For the same binder, the “EC50 (read off the curve)” value [6] was ~0.4 nM.

B4: ARB204, CDH17-PD1 bispecific antibody (anti-CDH17 10C12 Fab, anti-PD1 1C8 scFv) (bispecific antibody, human IgG1, kappa)
heavy: EVQLVESGGGLVQPGGSLRLSCAASGFTFSSYAMSWVRQTPGKGLEWVAVIDSNGGSTYYPDTVKDRFTISRDNSKNTLYLQMNSLRAEDTAVYYCSSYTNLGAYWGQGTLVTVSAASTKGPSVFPLAPSSKSTSGGTAALGCLVKDYFPEPVTVSWNSGALTSGVHTFPAVLQSSGLYSLSSVVTVPSSSLGTQTYICNVNHKPSNTKVDKRVEPKSCDKTHTCPPCPAPELLGGPSVFLFPPKPKDTLMISRTPEVTCVVVDVSQEDPEVQFNWYVDGVEVHNAKTKPREEQFNSTYRVVSVLTVLHQDWLNGKEYKCKVSNKGLPSSIEKTISKAKGQPREPQVYTLPPSQEEMTKNQVSLTCLVKGFYPSDIAVEWESNGQPENNYKTTPPVLDSDGSFFLYSRLTVDKSRWQEGNVFSCSVMHEALHNHYTQKSLSLSLGKPAGGGGSEVQLVESGGGLVQPGGSLRLSCAASGFTFSRSTMSWVRQAPGKGLEWVATISGGGLNTYFPDSVKGRFTISRDNSKNTLYLQMNSLRAEDTAVYYCTRNSNSYYFALDYWGQGTLVTVSSGGGGSGGGGSGGGGSEIVLTQSPATLSLSPGERATLSCRASESVDNSGVSFMNWYQQKPGQAPRLLIYIASNQVSGIPARFSGSGSGTDFTLTISSLEPEDFAVYYCQQIKEVPWTFGGGTKVEIK
light: DIQMTQSPSSLSASVGDRVTITCRASQDISGYLNWLQQKPGGAIKRLIYTTSTLDSGVPKRFSGSGSGTDFTLTISSLQSEDFATYYCLQYASSPFTFGGGTKVEIKRTVAAPSVFIFPPSDEQLKSGTASVVCLLNNFYPREAKVQWKVDNALQSGNSQESVTEQDSKDSTYSLSSTLTLSKADYEKHKVYACEVTHQGLSSPVTKSFNRGEC
notes: IgG4 Fc with IgG1 hinge, bivalent to each target
For B4, the EC50 [7] was 0.217 nM.
